Assay [1] deals with NOPLight (human (NOPR part)). Nature of the assay: other fluorescence titration.
Assay [2] addresses NOPLight (human (NOPR part)). Nature of the assay: other fluorescence titration. The source holds these as a separate data set.
For assay [3], the target named is NOPLight (human (NOPR part)). Nature of the assay: other fluorescence titration. This is another data set of the same source.
The target in assay [4] is NOPLight (human (NOPR part)). Nature of the assay: sensor fluorescence kinetics.
For assay [5], the target named is NOPLight (human (NOPR part)). Nature of the assay: sensor fluorescence in brain slices.

Like-named read-outs stand apart in the source and are kept apart here.

As to “Nociceptin/orphanin-FQ peptide (from UniProt Q13519 130-146)”, the EC50 in assay [1] is 42.8 nM; in assay [3], 28.6 nM. Besides, the ΔF/F0 upon N/OFQ in assay [2] is 378%; in assay [3], 388%. Also, in assay [4], the τON (time constant of signal activation) was determined as 595 ms.
Consider “endogenous N/OFQ released from PNOC neurons (peptide)”, for which, in assay [5], the F/F0 upon CNO-evoked release amounted to 1.6%.

One may read the EC50 as the midpoint of the concentration-response curve. Low values mean greater potency, high ones weaker potency.

The values above are taken from article PMC10245933.
